In patent US20250297030A1 (SHANDONG SIMCERE BIOPHARMACEUTICAL, published 2025):
Where two headings read alike, the source gives them in different places.

T1: Cyno MUC17 ECD3577-his (His-tagged cynomolgus monkey MUC17 protein extracellular domain fusion protein) (cynomolgus monkey)
T1 construct: also called monkey MUC17-his protein; monkey MUC17 ECD3577-His
T1 chain: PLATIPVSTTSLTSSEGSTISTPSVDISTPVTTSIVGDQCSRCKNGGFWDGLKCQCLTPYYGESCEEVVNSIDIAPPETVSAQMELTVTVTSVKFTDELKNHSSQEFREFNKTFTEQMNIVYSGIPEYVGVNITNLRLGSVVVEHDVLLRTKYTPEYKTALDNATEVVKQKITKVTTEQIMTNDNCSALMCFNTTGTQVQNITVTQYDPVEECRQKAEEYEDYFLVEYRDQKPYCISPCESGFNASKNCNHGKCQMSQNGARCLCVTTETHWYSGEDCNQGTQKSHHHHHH

T2: monkey MUC17 fragment on FlpinCHO-Cyno(3597-3964)-D2 cells (monkey)
T2 chain: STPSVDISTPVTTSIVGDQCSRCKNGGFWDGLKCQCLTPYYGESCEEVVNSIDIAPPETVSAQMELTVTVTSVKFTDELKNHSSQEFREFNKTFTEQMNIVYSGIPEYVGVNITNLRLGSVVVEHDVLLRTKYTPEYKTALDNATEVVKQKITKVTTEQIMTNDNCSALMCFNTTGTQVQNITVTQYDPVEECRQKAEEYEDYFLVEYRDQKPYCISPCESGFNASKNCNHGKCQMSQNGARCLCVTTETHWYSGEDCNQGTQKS


Columns and labels:
[1] = target: T3, Human MUC17 ECD4131-his (His-tagged human MUC17 protein extracellular domain fusion protein) (human, UniProt Q685J3 4131-4393); assay: SPR (Biacore 8K), antibody captured on Protein A
T3 construct: a truncation of the extracellular domain; also called human MUC17-his protein; human MUC17-His
Method: The strength of antibody-antigen binding was assayed with a BIAcore 8K instrument using an Protein A capture method. First, Protein A was immobilized onto a CM4 chip (purchased from GE, BR-1005-34) using an amino coupling method. According to the instruction of the Amine Coupling Kit (purchased from GE, BR100633), NHS and EDC were mixed with HBS-EP+ pH 7.4 as a mobile phase to activate the chip for about 600 s; the Protein A was diluted to 50 µg/mL with 10 mM sodium acetate (pH 4.5) and injected for 600 s, and finally, the remaining activated sites were blocked with ethanolamine. Then, the affinity of the antibody for the antigen was assayed using a multi-cycle kinetic method; in each cycle, first, the antibody to be tested was captured using the Protein A chip, and then a single concentration of antigen protein was injected. The association and dissociation processes of the antibody with the antigen protein were recorded, and finally, the chip was regenerated using Glycine pH 1.5, wherein the mobile phase was HBS-EP+ (10 mM HEPES, 150 mM NaCl, 3 mM EDTA, 0.05% surfactant P20), the flow rate was […], the regeneration time was 30 s, and the assay temperature was 25° C. Finally, according to a 1:1 binding model, the data were analyzed, and the antibody-antigen binding kinetics parameters, including the association rate constant Ka, the dissociation rate constant Kd, the equilibrium dissociation constant KD, and the maximum binding signal Rmax, were fitted. The association rate (Ka), dissociation rate (Kd), and binding affinity (KD) of the recombinant antibodies Lab315-huFc, Lab316-huFc, Lab320-huFc, Lab331-huFc, and Lab332-huFc with the human MUC17 protein are shown in Table 5.

[2] = target: T3, Human MUC17 ECD4131-his (His-tagged …); assay: ELISA on coated human MUC17 ECD4131-his, OD450
[3] = target: T1, Cyno MUC17 ECD3577-his (His-tagged …); assay: ELISA on coated monkey MUC17 ECD3577-His, OD450
Method: (§1) To assay the binding activity of the humanized antibodies with the monkey MUC17-his protein, the monkey MUC17-his protein was diluted with PBS to a final concentration of […] and subjected to ELISA assay and data analysis according to the method described in Example 3.3. The humanized antibodies SCR-7724, SCR-7782, SCR-7783, SCR-7784, and SCR-7785 have cross-binding activity with the monkey MUC17 protein, maintaining the binding ability of the recombinant antibody.

[4] = target: T4, human MUC17 on NUGC4 endogenous tumor cells (human, UniProt Q685J3 26-4493); assay: FACS on NUGC4 cells, MFI
Method: (§2) Then a complete medium was added to stop the digestion, and the cells were blown into a single cell suspension. After counting, the cells were centrifuged, and the cell pellet was resuspended to 2×10⁶ cells/mL in an FACS buffer (PBS+2% fetal bovine serum), and added to a 96-well FACS reaction plate at 100 µL/well. The plate was centrifuged, and the supernatant was discarded. An antibody sample to be tested (diluted in a 3-fold gradient from a starting concentration of 100 nM) was added at 50 µL/well and uniformly mixed with the cells, and the mixture was incubated at 4° C. for 1 h. […] The results were tested and analyzed by FACS (FACS Canto™, purchased from BD) after the plate was centrifuged and washed 3 times with a PBS buffer and resuspended with 100 μL of PBS. Data analysis was performed by software (FlowJo) to obtain the mean fluorescence intensity (MFI) of the cells. Then, analysis was performed by software (GraphPad Prism8), data were fitted, and EC50 values were calculated. As shown in FIGS. 3A-3B, the recombinant antibodies Lab315-huFc, Lab316-huFc, Lab320-huFc, Lab331-huFc, and Lab332-huFc are all capable of binding specifically to NUGC-4 cells.

[5] = target: T4, human MUC17 on NUGC4 endogenous tumor …; assay: FACS on NUGC4 cells, MFI; remark: listed apart in the source
Method: as §2
(§3) The preparation of the assay cells and the antibodies to be tested and the assay were performed with reference to Example 3.4. […]

[6] = target: T1, Cyno MUC17 ECD3577-his (His-tagged …); assay: ELISA on coated monkey MUC17 ECD3577-His, OD450
Method: as §1

[7] = target: T3, Human MUC17 ECD4131-his (His-tagged …); assay: ELISA on coated human MUC17 ECD4131-his, OD450; remark: listed apart in the source
[8] = target: T3, Human MUC17 ECD4131-his (His-tagged …); assay: ELISA on coated human MUC17 ECD4131-his, OD450; remark: listed apart in the source
Method: (§4) A human MUC17-his protein was diluted with PBS to a final concentration of […] and then added to a 96-well ELISA plate at 50 µL/well. The plate was incubated at 4° C. overnight. The next day, the plate was washed 2 times with PBST, and a blocking buffer [PBS+2% (w/w) BSA] was added for blocking at room temperature for 2 h. The blocking buffer was discarded, and the recombinant antibody and positive and negative control antibody with a starting concentration of 100 nM serially diluted by 3 folds were added at 50 μL/well. After incubation at 37° C. for 1 h, the plate was washed 3 times with PBST. A horseradish peroxidase (HRP)-labeled secondary antibody (purchased from Merck, Cat. No. AP113P) was added for incubation at 37° C. for 1 h, and the plate was washed 5 times with PBST. A TMB substrate was added at 50 μL/well for incubation at room temperature for 10 min, and then a stop solution (1.0 M HCl) was added at 50 µL/well. The OD₄₅₀ nm values were read by an ELISA plate reader (Multimode Plate Reader, EnSight, purchased from Perkin Elmer).

[9] = target: T1, Cyno MUC17 ECD3577-his (His-tagged …); assay: ELISA on coated monkey MUC17 ECD3577-His, OD450
Method: as §1

[10] = target: T2, monkey MUC17 fragment on …; assay: FACS on FlpinCHO-Cyno(3597-3964)-D2 cells, MFI
[11] = target: T1, Cyno MUC17 ECD3577-his (His-tagged …); assay: ELISA on coated monkey MUC17 ECD3577-His, OD450
Method: as §4
(§5) The monkey MUC17-his protein was subjected to ELISA and data analysis according to the method described in Example 3.2. The recombinant antibodies Lab315-huFc, Lab316-huFc, Lab320-huFc, Lab331-huFc, and Lab332-huFc have a relatively good binding activity with the monkey MUC17-his protein.

[12] = target: T3, Human MUC17 ECD4131-his (His-tagged …); assay: ELISA on coated human MUC17 ECD4131-his, OD450; remark: listed apart in the source
Method: as §4

[13] = target: T3, Human MUC17 ECD4131-his (His-tagged …); assay: ELISA on coated human MUC17 ECD4131-his, OD450; remark: listed apart in the source
Method: as §4

[14] = target: T1, Cyno MUC17 ECD3577-his (His-tagged …); assay: ELISA on coated monkey MUC17 ECD3577-His, OD450
Method: as §4, §5

[15] = target: T4, human MUC17 on NUGC4 endogenous tumor …; assay: FACS on NUGC4 cells, MFI; remark: listed apart in the source
Method: as §2

[16] = target: T4, human MUC17 on NUGC4 endogenous tumor …; assay: FACS on NUGC4 cells, MFI; remark: listed apart in the source
Method: as §2, §3

[17] = target: T3, Human MUC17 ECD4131-his (His-tagged …); assay: ELISA on coated human MUC17 ECD4131-his, OD450; remark: listed apart in the source
Method: as §4

[18] = target: T3, Human MUC17 ECD4131-his (His-tagged …); assay: ELISA on coated human MUC17 ECD4131-his, OD450; remark: listed apart in the source
Method: as §4

[19] = target: T4, human MUC17 on NUGC4 endogenous tumor …; assay: FACS on NUGC4 cells, MFI; remark: listed apart in the source
Method: as §2, §3

[20] = target: T4, human MUC17 on NUGC4 endogenous tumor …; assay: FACS on NUGC4 cells, MFI; remark: listed apart in the source
Method: as §2, §3

[21] = target: T1, Cyno MUC17 ECD3577-his (His-tagged …); assay: ELISA on coated monkey MUC17 ECD3577-His, OD450
Method: as §1

[22] = target: T1, Cyno MUC17 ECD3577-his (His-tagged …); assay: phage ELISA and FACS screening

| Binder | EC50 (read off the curve) [2] | EC50 (read off the curve) [3] | EC50 (read off the curve) [6] | EC50 (read off the curve) [9] | EC50 (read off the curve) [11] | EC50 (read off the curve) [12] | EC50 (read off the curve) [14] | EC50 (read off the curve) [16] | EC50 (read off the curve) [17] | EC50 (read off the curve) [18] | EC50 (read off the curve) [21] | further results |
| --- | --- | --- | --- | --- | --- | --- | --- | --- | --- | --- | --- | --- |
| 2D11-hIgG1 (antibody, V domains shown, Control antibody from WO2019133961A1, expressed as human IgG1 + kappa; also called 21D11; MUC17 control antibody) VH: QVQLVESGGGVVQPGRSLRLSCAASGFTFSNHGMHWVRQAPGKCLEWVAGIWSDASNKYYAEAVKGRFTISRDTSKNTLYLQMNSLRAEDTAVYYCARATYTTGWSYFDYWGQGTLVTVSS VL: SYELTQSPSVSVSPGQTASITCSGDKLGDKYTSWYQQKPGQSPVLVIYHDRKRPSGIPERFSGSNSGNTATLTISGTQAMDEADYYCQAYDRSTAWVFGCGTKLTVLR | ~0.006 nM | ~0.01 nM | ~0.01 nM | ~0.04 nM | ~0.03 nM | ~0.02 nM | ~0.01 nM | ~0.05 nM | ~0.006 nM | ~0.04 nM | ~0.05 nM | Kd [1]: 7.12 nM; koff [1]: 0.000753 s⁻¹; kon [1]: 106000 M⁻¹ s⁻¹; EC50 (read off the curve) [4]: ~0.1 nM; EC50 (read off the curve) [5]: ~0.1 nM; EC50 (read off the curve) [7]: ~0.02 nM; EC50 (read off the curve) [8]: ~0.03 nM; EC50 (read off the curve) [10]: ~0.4 nM; EC50 (read off the curve) [13]: ~0.02 nM; EC50 (read off the curve) [15]: ~0.07 nM; EC50 (read off the curve) [19]: ~0.1 nM; EC50 (read off the curve) [20]: ~0.1 nM |
| 4C11-hIgG1 (antibody, V domains shown, also called MUC17 control antibody) VH: not shown VL: EIVLTQSPGTLSLSPGERATLSCRASQSVNRYLAWYQQKPGQAPRLLIYGASNRATGIPDRFTGSGSGTDFTLTISRLEPEDFAVYFCHHYGSSIFAFGCGTKVEIKR | ~0.01 nM | ~0.02 nM | ~0.05 nM | ~0.08 nM | ~0.04 nM | ~0.05 nM | ~0.02 nM | ~4 nM | ~0.01 nM | ~0.05 nM | ~0.08 nM |  |
| Lab315 (VHH, also called Lab315 phage clone; SCR-7724) VHH: DVQLQASGGGAVQAGGSLRLSCAASGDITRRCMGWFRQAPGKEREGVAGISEDGITIYADSVKGRFTISKDNAKNSLYLQMNSLAPEDTANYSCAASILNRVGCRQLSYEYIYRGQGTQVTVSS |  |  |  |  |  |  |  |  |  |  |  | binding result [22]: binds |
